The record followed here is patent publication US20250277027A1 (POPULAS BIOPHARMACEUTICAL WUHAN, published 2025).

In test [1] the target is T1, polypeptide C9797BL020-7.
T1 construct: also called antigen peptide
T1 peptide: CDSVNVDKQPKYEYS
As to the kind of experiment: SPR, antibody at 12.5, 25, 50, 100, 200 and 400 nM. Background: In SPR one partner is held on a chip, and binding of the other changes the refractive index at the surface.

The target in test [2] is T1, polypeptide C9797BL020-7. As to the kind of experiment: affinity sorting, kinetic fit in RU, antibody as analyte solution.
The target of another test is SCN9A-4-B2M. Kind of test: SPR, ligand SCN9A-4-B2M, analyte 5C12D2C8, 1:1 binding fit; analyte at 12.5 to 400 nM per paragraph 79.

B1: monoclonal antibody 5C12D2C8 (antibody, V domains shown)
VH: EVQLVESGGDLVKPGGSLKLSCAASGFTFSSGGMSWVRQTPDKRLEWVATISNGGGETYYEDSVKGRFTISRDNAKNTLYLQMNSLKSEDTAMYYCAREEYEGTWYEDVWGAGTTVTVSS
VL: DVLMTQTPLSLPVSLGDQASISCTSSQSGVHSNGNTELEWYLQKPGQSPKLLIYKVSNRTSGVPDRFSGSGSGTDFTLKISRVEAEDLGVYYCGQGSHVGRTFGGGTKLEIKR
Regarding B1, the Kd with polypeptide C9797BL020-7 [1] was determined as 8.78 nM; with polypeptide C9797BL020-7 [2] it was 4.55 nM. The koff with polypeptide C9797BL020-7 [1] came to 0.000247 s⁻¹; in the test with polypeptide C9797BL020-7 [2], 0.00023 s⁻¹. The kon is 50600 M⁻¹ s⁻¹ with polypeptide C9797BL020-7 [2] and 28100 M⁻¹ s⁻¹ with SCN9A-4-B2M.

By Kd is commonly meant the free concentration of one partner at which half of the binding sites on the other are occupied at equilibrium, for simple one-to-one binding. A lower Kd goes with higher affinity. By koff is commonly meant the rate constant with which the complex falls apart. Lower therefore signals a long-lived complex. The kon is the second-order rate constant of association.
